The Kd is the concentration at which binding is half-saturated. Read a low Kd as a tighter complex.

Some results are limits rather than exact numbers.

The target of assay [1] is His6-Smt3-Parkin (human, UniProt O60260 1-465, RED-tris-NTA dye bound to the His6 tag). The experiment in a line: MST.
The target of assay [2] is human parkin, full-length (human, UniProt O60260 1-465). Description: ITC.
Sequence of human parkin, full-length (O60260 whole entry): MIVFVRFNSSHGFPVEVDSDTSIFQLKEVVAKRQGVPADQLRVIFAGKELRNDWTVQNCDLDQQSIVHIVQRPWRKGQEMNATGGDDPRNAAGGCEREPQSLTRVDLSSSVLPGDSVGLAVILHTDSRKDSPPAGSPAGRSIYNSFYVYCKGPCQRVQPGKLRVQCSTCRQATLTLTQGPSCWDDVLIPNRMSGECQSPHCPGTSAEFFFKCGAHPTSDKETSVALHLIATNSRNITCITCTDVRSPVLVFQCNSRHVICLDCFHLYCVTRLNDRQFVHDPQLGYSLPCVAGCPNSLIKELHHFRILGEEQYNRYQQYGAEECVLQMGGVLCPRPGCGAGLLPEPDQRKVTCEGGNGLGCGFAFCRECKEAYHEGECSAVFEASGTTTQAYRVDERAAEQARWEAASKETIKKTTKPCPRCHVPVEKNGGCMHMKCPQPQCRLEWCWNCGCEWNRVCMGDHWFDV

Sequence of His6-Smt3-Parkin (O60260 whole entry): as above

B1: Miro1^181-579 (soluble construct of Miro1 containing the EF1-EF2-G2 domains) (domain or fragment, human, UniProt Q8IXI2 181-579, looked up)
chain: MKPACIKALTRIFKISDQDNDGTLNDAELNFFQRICFNTPLAPQALEDVKNVVRKHISDGVADSGLTLKGFLFLHTLFIQRGRHETTWTVLRRFGYDDDLDLTPEYLFPLLKIPPDCTTELNHHAYLFLQSTFDKHDLDRDCALSPDELKDLFKVFPYIPWGPDVNNTVCTNERGWITYQGFLSQWTLTTYLDVQRCLEYLGYLGYSILTEQESQASAVTVTRDKKIDLQKKQTQRNVFRCNVIGVKNCGKSGVLQALLGRNLMRQKKIREDHKSYYAINTVYVYGQEKYLLLHDISESEFLTEAEIICDVVCLVYDVSNPKSFEYCARIFKQHFMDSRIPCLIVAAKSDLHEVKQEYSISPTDFCRKHKMPPPQAFTCNTADAPSKDIFVKLTTMAMY
Regarding B1, the dissociation constant (Kd) in assay [1] is over 100 µM.

B2: human CISD1 (residues 32-108) (domain or fragment, UniProt Q9NZ45 32-108, looked up)
chain: KRFYVKDHRNKAMINLHIQKDNPKIVHAFDMEDLGDKAVYCRCWRSKKFPFCDGAHTKHNEETGDNVGPLIIKKKET
Molecule B2 had a Kd in assay [2] of over 100 µM.

Values taken from article doi:10.1101/2021.06.01.446590 (bioRxiv, 2021).
